Source: US7820142B2, “Immunogenic glycopeptides, screening, preparation and uses” (priority 2004, dated 2010)
Entries after “also recorded” stand apart in the source; their conditions may differ. Where two headings read alike, the source gives them in different places. No end group written: not given here.

Legend:
[1] = test system: CD4+ T lymphocytes; format: cell-based, human; conditions: for difference of response between tuberculosis patients and vaccinated controls (in words): 18 patients versus 12 BCG-vaccinated controls
[2] = test system: guinea pigs immunized with live BCG; format: in vivo, guinea pig; conditions: for loss of antigenic activity during digestion with α-mannosidase: 0.2 μg intradermal
[3] = test system: T lymphocytes; experiment: in vitro lymphocyte proliferation assay; format: cell-based
Source text: The conditions of the assay are those described in Horn et al., mentioned above.

[4] = test system: guinea pigs immunized with heat-inactivated BCG; format: in vivo, guinea pig
[5] = test system: guinea pigs immunized with the Apa fusion peptide; experiment: delayed hypersensitivity reactions, guinea pigs immunized with the Apa fusion peptide; format: in vivo, guinea pig
[6] = test system: guinea pigs immunized with the plasmids pAG831 or pAG832; experiment: delayed-type hypersensitivity assay, guinea pigs immunized with naked DNA encoding Apa; conditions: guinea pig, in vivo
[7] = test system: CD4+ T lymphocytes originating from animals infected with M. tuberculosis or immunized with BCG; conditions: cited from earlier work
[8] = guinea pigs immunized with live BCG

Molecule: H-DPEPAPPVPTTAASPPSTAAAPPAPATPVAPPPPAPAAAT-NH2 [glycosylated Apa peptide]
- stimulation of CD4+ lymphocytes from the controls [1]: does not stimulate
- proportion of tuberculosis patients positive in the assay ([1]; 18 tuberculosis patients, six days stimulation): 13/18

Molecule: Lip: mannosylated glycopeptide purified from M. tuberculosis culture medium, derived from the protein encoded by the Rv1796 gene (SEQ ID NO:3) (Ac-TIPTTETPPPPQTVTLSPVPPQTVTVIPAPPPEEG; also: mannosylated; listed as Mycobacterium tuberculosis)
- erythema reaction, peptide treated with subtilisin ([2]; 0.02 μg in 0.1 ml): negative
- erythema reaction, peptide treated with α-mannosidase ([2]; 0.02 μg in 0.1 ml): negative
- antigenic activity after deglycosylation ([2]; after α-mannosidase for 24 h at 37° C.): less than 30 000 TU/mg
- antigenic activity [2, 8]: 1 000 000 TU/mg
- delayed-type hypersensitivity reaction (in words) [2, 8]: very active
- antigenic activity after the action of subtilisin ([2]; subtilisin 24 h at 37° C.): abolishes the antigenic activity
- activity relative to PPD at an equivalent amount of proteins ([2]; versus standard purified proteins from M. tuberculosis (PPD)): at least 10 times
- loss of antigenic activity after α-mannosidase ([2]; α-mannosidase for 24 h at 37° C.): more than 95%
- T-lymphocyte proliferation ([3]; T lymphocytes treated with an antibody directed against CD4 molecules): marginal
- T-lymphocyte proliferation ([3]; glycopeptide treated with α-mannosidase): marginal
- T-lymphocyte proliferation ([3]; native glycopeptide): dependent on the peptide concentration
- delayed-type hypersensitivity reaction (in words) [4]: relatively inactive

B1: Native Apa: protein secreted by M. tuberculosis, product of the Rv 1860 gene, purified from the culture supernatant (protein, UniProt P9WIR7 40-325, looked up)
Alanine and proline-rich …: DPEPAPPVPTTAASPPSTAAAPPAPATPVAPPPPAAANTPNAQPGDPNAAPPPADPNAPPPPVIAPNAPQPVRIDNPVGGFSFALPAGWVESDAAHFDYGSALLSKTTGDPPFPGQPPPVANDTRIVLGRLDQKLYASAEATDSKAAARLGSDMGEFYMPYPGTRINQETVSLDANGVSGSASYYEVKFSDPSKPNGQIWTGVIGSPAANAPDAGPPQRWFVVWLGTANNPVDKGAAKALAESIRPLVAPPPAPAPAPAEPAPAPAPAGEVAPTPTTPTPQRTLPA
modifications: glycosylated native
notes: protein secreted by M. tuberculosis, product of the Rv 1860 gene, purified from the culture supernatant
- sensitization (in words) [5]: identical
- difference of response between tuberculosis patients and vaccinated controls (in words) [1]: stimulates more frequently the response from the patients
- loss of antigenic activity ([2]; Apa molecules on which there remain 3 to 6 mannose residues): 86%
- loss of antigenic activity during digestion with α-mannosidase ([2]; digestion 1 h): 66%
- loss of antigenic activity during digestion with α-mannosidase ([2]; digestion 4 h): 86%
- delayed-type hypersensitivity reaction (in words) [2, 8]: antigenic; also recorded: show a delayed-type hypersensitivity reaction; also recorded: considerable
- delayed-type hypersensitivity / CD4+ T lymphocyte response (in words) [6]: equivalent; also recorded: develop, in the vast majority of cases, an immune response
- loss of antigenicity after demannosylation ([7]; α-mannosidase, TFMS or expression in E. coli): 100 fold

B2: Deglycosylated Apa: deglycosylated Apa protein prepared as described in example 1 (digestion with α-mannosidase) (protein, UniProt P9WIR7 40-325, looked up)
Alanine and proline-rich …: B1 Alanine and proline-rich …
modifications: deglycosylated
- sensitization (in words) [5]: identical
- difference of response between tuberculosis patients and vaccinated controls (in words) [1]: this difference between the groups is lost
- delayed-type hypersensitivity reaction (in words) [2, 8]: very weak or absent
- delayed-type hypersensitivity / CD4+ T lymphocyte response (in words) [6]: of the same strength as the responses observed with the glycosylated native antigen

B3: glycosylated Apa produced by Mycobacterium smegmatis: Apa produced by M. smegmatis, overall mannose composition slightly different from that of M. tuberculosis Apa (protein, UniProt P9WIR7 40-325, looked up)
Alanine and proline-rich …: B1 Alanine and proline-rich …
modifications: glycosylated, produced in M. smegmatis
- decrease of antigenic activity versus Apa produced by M. tuberculosis [7]: approximately 10 fold

B4: E. Coli recombinant Apa: deglycosylated recombinant Apa produced in E. coli (protein, UniProt P9WIR7 40-325, looked up)
Alanine and proline-rich …: B1 Alanine and proline-rich …
modifications: recombinant, non-glycosylated, E. coli
- delayed-type hypersensitivity reaction (in words) ([2]; guinea pigs immunized with live BCG, listed as molecules produced in E. coli): very weak or absent
- delayed-type hypersensitivity reaction (in words) ([2]; guinea pigs immunized with live BCG, listed as non-glycosylated recombinant Apa produced in E. coli): no reaction or develop a greatly decreased reaction
- delayed-type hypersensitivity / CD4+ T lymphocyte response (in words) [6]: of the same strength as the responses observed with the glycosylated native antigen
- delayed-type hypersensitivity / CD4+ T lymphocyte response (in words) ([6]; listed as E. coli rApa): equivalent
